Measurements published in PMC9674292.

Key:
[1] = biological target: EGFP-VopF (V. cholerae); assay: stepwise photobleaching of single-molecule speckles (TIRF, live cells); XTC cells with very low levels of EGFP-VopF or EGFP-VopL; speckles arrested with 10 nM latrunculin A; continuous 488-nm illumination; distribution of bleaching steps compared with a binomial model (probability of EGFP being fluorescent 0.75)
[2] = biological target: EGFP-VopL (V. parahaemolyticus); assay: as above

| Substance | stoichiometry N [1] | stoichiometry N [2] |
| --- | --- | --- |
| EGFP-VopF (natural protein) | 2 | – |
| EGFP-VopL (natural protein) | – | 2 |
